Legend:
Experiment in all cases: EMSA
Mfd WA550 RA953 = Mfd WA550 RA953 (Escherichia coli, UniProt P30958 1-1148, W550A;R953A)
Mfd D7AAA = Mfd D7AAA (Escherichia coli, UniProt P30958 1-1148, E1045A;D1048A;R1049A)
Mfd RA953 = Mfd RA953 (Escherichia coli, UniProt P30958 1-1148, R953A)
Mfd WA550 = Mfd WA550 (Escherichia coli, UniProt P30958 1-1148, W550A)

B1: 50 bp oligonucleotide duplex (dsDNA)
DNA 1: CTCATACGACGCTGTCGATCCAGTCACTGTCATGCGCTATCCGATCCTAG
DNA 2: CTAGGATCGGATAGCGCATGACAGTGACTGGATCGACAGCGTCGTATGAG
binding result (Mfd WA550 RA953): no binding
binding result (Mfd D7AAA): binds
binding result (Mfd RA953): binds
binding result (Mfd WA550): binds

Source: paper PMC3488230
